{"source": "the DeepSol protein solubility set", "data": [{"assay": "soluble on expression in E. coli; label from the status in PepcDB or PDB records", "values": [{"sequence": "MIGGRLKSLRGKRTQEEIASHIGVSRARYSHYENGRSEPDYDTLQKLADYFQVTTDYLLTGKDKKSDDDMFSDPDLQLAYRDMQDFSPESKQQAIEFINYLKEKEKNRKPKNK", "soluble on expression in E. coli": "not soluble"}, {"sequence": "SFKKFDEKENVSNCIQLKTSVIKGIKNQLLEQFPGIEPWLNQIMPKKDPVKIVRCHEHIEILTVNGELLFFRQREGPFYPTLRLLHKYPFILPHQQVDKGAIKFVLSGANIMCPGLTSPGAKLYPAAVDTIVAIMAEGKQHALCVGVMKMSAEDIEKVNKGIGIENIHYLNDGLWHMKTYK", "soluble on expression in E. coli": "soluble"}, {"sequence": "MIMNHMPKKIVIIGAGAGGGISLSQLRRALSNEDVEITIIDQTGRTDFQPSYVFLALGEKKPEEISRDISQLNDSRVRAVKDTVISVDAANRVVKTSGGSYQYDYLIMSPGPSIDPSSLKGHEATHSVWTMEDSLRLRDAVKNFKGGNVLISVSTQWYKCPPVPWEMALLLDDYFRRKNIRDKVKITVAHPVSRPMEMYGPGLSEPFSKMLDDRNIEGIYGRRVSSVDAEKKRAIMDNGETVGFDLSIVAPPHLPPDFIKNNDDLRSPRGWAATNIRDFRNPKYEDVFAIGDVIAPTIQIGMAGVLAHFQADTVSSAIAEEIAGYPFMEYNKVAVCIIATGGSGVFSYCDLAGKLTDPKVKFPECRMIGNDPLFRFAHDLYEVNFLSSIYGSRLEHHHHHH", "soluble on expression in E. coli": "not soluble"}, {"sequence": "WIRTGDGVRLRTVVWPEGAAGTVLIFSGRTEYAEKYGPAAEALRRRGFASATLDWRGQGLSDRSLRDPLVGHVDDFASYQQDVTAFVAALRAQGLPEPFHLLAHSMGGCIGLRALHEGLPVRAACFSAPMWGIRVHAALRIVAAALGALARATGLGHRYVPGTGTRSYVATAAFDTNVLTRDPEMFAWMQEQLVQAPELGLAGPSLDWLRAAFEETARLKRLPAPDLPALCIVGSAEKVVDLEEIQRRMEGWGRGELQIVPGAEHEVMMDRPEVRDAFFDAA", "soluble on expression in E. coli": "not soluble"}, {"sequence": "MGSDKIHHHHHHMSNSLKASTAGLAIVDKSRQRLGWTKTSTARWWQDAHTSRATLRRFWQGDRIQREIFIAICQAVGIGNWEAIAELSNADLESTVVIPTPYLDCNEAPDLESFYGRNQELAQLEEWLTSQNCKLVTINGIAGIGKTALALALVDRIQLKFDCLIWKSLQTSPSLISLLNSLLNSFEQGVVVQNIQQGTAQLIQQLQKHHCLLILDGLEAIFSQPEDLSYGQFIQQLSRERHQSCILISSREQPNNIETNTKIYHCLNLKGLPKTEAVELLQSRGFTGKELGLSVLIQLYRGNPLVLKLVTPLIQSVFGGNVAAFLSQHTLIVGDRLRVILKQQFEQLSGLEQDILYWLAIWQEPVSFSRLQTHLLISVDPAMVLEGIVALERRSLLEKWVSDYELSFTLQPLVMKVVTDELIEHTVQEIDRVVQSHDIRHFQILRTHWLLRPGTDDIAGDRILTQLWKKLWHLYGATLPQIFNQILLLLKSQSPLAMGYIGSNVAILSGIDLL", "soluble on expression in E. coli": "not soluble"}, {"sequence": "MAHHHHHHMAACRSTPLTSSPVACEQAHRQPTIVDRDYEASKYWKSHRCRRIPKATGLTAVLITNPGLSVFTHQPHSRTNTVQGRKSCQGQQTTGRQLQISGNRAVADSVPRSQKNSVTAAWSV", "soluble on expression in E. coli": "not soluble"}, {"sequence": "MHQQIIKFWFEELTPQNWFENNPELDKHIASRFASVLEQAARCELFNWRDSAQGRLAEIIVLDQFSRNVYRNTPKAFAQDPLALALAQEAIRLGHDQELAPEQLSFLYMPFMHSESRLIHVEAEKLFRASGLENNYDFELKHKAIIDQFGRYPHRNAILGRESTPEELAFLQQPGSSF", "soluble on expression in E. coli": "not soluble"}, {"sequence": "SVTASRYYPQLMSLVGNVLRFLPAFVRMKQLISEHYVGAVMICDARIYSGSLLSPSYGWICDELMGGGGLHTMGTYIVDLLTHLTGRRAEKVHGLLKTFVRQNAAIRGIRHVTSDDFCFFQMLMGGGVCSTVTLNFNMPGAFVHEVMVVGSAGRLVARGADLYGQKNSATQEELLLRDSLAVGAGLPEQGPQDVPLLYLKGMVYMVQALRQSFQGQGDRRTWDRTPVSMAASFEDGLYMQSVVDAIKRSSRSGEWEAVEVLTEEPDTNQNLCEALQRNNL", "soluble on expression in E. coli": "soluble"}, {"sequence": "MDKDLQSIQEVRDLLAAASKAFEEYSQFSQSQIDEIVKEICEEAQKHEVELAKLANEETGFGRWEDKVLKNRLASVGVYETIKDLKTRGIINDDKEKRITEIGVPMGIIAALIPSTNPTSTTIYKIMISLKAGNAVIVSPHPNAKDSILKTAEYLIRAAERKGAPKGLIGVIKTPTLQATQELMKHKKTSLILATGGEAMVKAAYSSGTPAIGVGPGNGPSFIERSADIRKAVKRIIDSKTFDNGVICASEQSIVTEEVIKHQVADELKRQGAYFLNKDEREKVGKILMRANNTMNPKIVGKTALYVAAMAGITVPVTTKVLISEETEVSHFNPYSREKLCPVLGFYTEETWEKACEKCIEILQNEGIGHTMSMHTNNENIIREFSLKKPVSRLLVNTPAALGGVGATTNLIPAFTLGCGTVGGSATSDNIGPLNLINIRRVAYGTKELEELKNEGVCTCACELNTDTSNSKVSENDIESIIRQVLDGIYKK", "soluble on expression in E. coli": "not soluble"}, {"sequence": "MGSDKIHHHHHHVEKFDLENFPVSESAKNMIASVSDGFYDNSYVGKWLYEVMGQEYDTAREIAEDILNQLFPETATWGLMYHEIKWGLPVRENLPYEERRQLIYRKRDYRAPMTPYRMEGYLKTATGFDVRIADINDPGDYGFVAPHPNVFKAYFMGEGTLASKRARAMLNELKQSHTMFTMNDRTEIVSDNRNLEEMNLKKIIFHIAESFWYSDLLDGRKPLDGSSLLYPYMRYNLMLGFKYMLGGFTTPTDADLQKVKFRAEQKTENDVKAGAIRIASDIIFWNTHLLDGSWDLDGSHRLDVTRGYQLGVAIVAMVACAYNKVTDSMKVRSTYGLRSSSDARAAIRSEFEADFWNTVYLDGKLLLDGNAMLEHRGGNKRLEAAVTHHMGIEREDMDVEAQVITKTRNYWFLDGSNALDGKKNLNSIYRKEYIQ", "soluble on expression in E. coli": "not soluble"}, {"sequence": "MAVVGYISYDNRDTFMNAKDVLSTEIEAVNGKADTKESKECEDTQASDEVALETDSTEEILNAGETVLTSASTESEECVAQVKLGREQVRSKNKEALQKIIDDAGVSEAEKKSAVDAMVKLTENAQMEEDAQMMLEAKGFKNAVVSLSDECCDVIVGKDDVTDEKRAQIEDIIKRKTNIGASNIVISTMD", "soluble on expression in E. coli": "not soluble"}, {"sequence": "SIEKIWAREILDSRGNPTVEVDLYTAKGLFRAAVPSGASTGIYEALELRDGDKQRYLGKGVLKAVDHINSTIAPALISSGLSVVEQEKLDNLMLELDGTENKSKFGANAILGVSLAVCKAGAAERELPLYRHIAQLAGNSDLILPVPAFNVINGGSHAGNKLAMQEFMILPVGAESFRDAMRLGAEVYHTLKGVIKDKYGKDATNVGDEGGFAPNILENSEALELVKEAIDKAGYTEKIVIGMDVAASEFYRDGKYDLDFKSPTDPSRYITGDQLGALYQDFVRDYPVVSIEDPFDQDDWAAWSKFTANVGIQIVGDDLTVTNPKRIERAVEEKACNCLLLKVNQIGSVTEAIQACKLAQENGWGVMVSHRSGETEDTFIADLVVGLCTGQIKTGAPCRSERLAKYNQLMRIEEELGDEARFAGHNFRNPSVLHHHHHH", "soluble on expression in E. coli": "soluble"}, {"sequence": "MSLDKNLQTVIHDEHCGTLDFSLGDSRYSGELESGESYTVNFSVNPPEGSSIKVARAYIYWTWSKQGLDGIYPEFKSSLVHSGSSVLLLEEKRYTDTKGFVSRYDFFSGTDVYDLSEDISEAGNYSISLVNAGGDEKTFCVQGAGLLLVYENPDLPQTEYWINEGCDVLYAEYGIDPDMATTTTFFEGDICPENIENARLITVSPSGGYSSGTEARNRLFFNEKTGSIPVIGDIIKLLFAGGKSWKNVYQTNETVQIALDERSVGNYLDSNGNFASIQDNGDYLMATNAILLLEFKEPENPGKRYGEGHHHHHH", "soluble on expression in E. coli": "not soluble"}, {"sequence": "MSRVPRTFAGWTEQMSSSGKMYYYNKKTEISQWDKPAEWPAEGGSAERDKPKGGVNEKPRFAEDRYNEYIGQLSSSSSCFWRQIGIFSLSSSSKYYLCASRFLPLSHSLLQFLREIRRRL", "soluble on expression in E. coli": "not soluble"}, {"sequence": "MGNFHATTIFAVHHNGECAMAGDGQVTMGNAVVMKHTARKVRKLFQGKVLAGFAGSVADAFTLFEMFEGKLEEYNGNLQRAAVEMAKQWRGDKMLRQLEAMLIVMDKTTMLLVSGTGEVIEPDDGILAIGSGGNYALSAGRALKQYASEHLTAKQIAKASLEIAGDICVYTNHNIIVEEL", "soluble on expression in E. coli": "not soluble"}]}]}
